Experimental data: patent US20230002480A1

Assays:
Experiment in all cases: cell-based or functional assay
[1] = molecular target: HIV-1 Env of pseudovirus X2088_c9 (clade G) (HIV-1)
[2] = molecular target: HIV-1 Env of pseudovirus 211-9 (clade CRF02_AG) (HIV-1)
[3] = molecular target: HIV-1 Env of pseudovirus BJOX015000.11.5 (clade CRF01_AE (T/F)) (HIV-1)
[4] = molecular target: HIV-1 Env of pseudovirus 62357_14_D3_4589 (clade B (T/F)) (HIV-1)
[5] = molecular target: HIV-1 Env of pseudovirus HIV-16845-2.22 (clade C) (HIV-1)
[6] = molecular target: HIV-1 Env of pseudovirus RHPA4259.7 (clade B) (HIV-1)
[7] = molecular target: HIV-1 Env of pseudovirus 1056_10_TA11_1826 (clade B (T/F)) (HIV-1)
[8] = molecular target: HIV-1 Env of pseudovirus 7030102001E5(Rev-) (clade C (T/F)) (HIV-1)
[9] = molecular target: HIV-1 Env of pseudovirus Du422.1 (clade C) (HIV-1)
[10] = molecular target: HIV-1 Env of pseudovirus PVO.4 (clade B) (HIV-1)
[11] = molecular target: HIV-1 Env of pseudovirus ZM197M.PB7 (clade C) (HIV-1)
[12] = molecular target: HIV-1 Env of pseudovirus Q461.e2 (clade A) (HIV-1)
[13] = molecular target: HIV-1 Env of pseudovirus HIV-001428-2.42 (clade C) (HIV-1)
[14] = molecular target: HIV-1 Env of pseudovirus Q842.d12 (clade A) (HIV-1)
[15] = molecular target: HIV-1 Env of pseudovirus QH0692.42 (clade B) (HIV-1)
[16] = molecular target: HIV-1 Env of pseudovirus AC10.0.29 (clade B) (HIV-1)
[17] = molecular target: HIV-1 Env of pseudovirus CNE30 (clade BC) (HIV-1)

10-1074 (antibody)
IC50, titer in TZM.bl cells [1]: 0.003 µg/mL
IC80, titer in TZM.bl cells [1]: 0.014 µg/mL
IC50, titer in TZM.bl cells [2]: 0.112 µg/mL
IC80, titer in TZM.bl cells [2]: 0.425 µg/mL
IC50, titer in TZM.bl cells [3]: > 50 µg/mL
IC80, titer in TZM.bl cells [3]: > 50 µg/mL

N49P18.1 (antibody)
IC50 [4]: 10.4 µg/mL
IC80 [4]: 48 µg/mL
MPI [4]: 82
IC50 [5]: > 50 µg/mL
IC80 [5]: > 50 µg/mL
MPI [5]: 23
IC50 [6]: 4.34 µg/mL
IC80 [6]: 21.4 µg/mL
MPI [6]: 98
IC50 [7]: 30.5 µg/mL
IC80 [7]: > 50 µg/mL
MPI [7]: 62
IC50 [8]: 6.35 µg/mL
IC80 [8]: 17.7 µg/mL
MPI [8]: 98
IC50 [9]: 21.5 µg/mL
IC80 [9]: > 50 µg/mL
MPI [9]: 75
IC50 [10]: 9.65 µg/mL
IC80 [10]: 40.2 µg/mL
MPI [10]: 84
IC50 [11]: 12.5 µg/mL
IC80 [11]: 49.8 µg/mL
MPI [11]: 84
IC50 [12]: 24.7 µg/mL
IC80 [12]: > 50 µg/mL
MPI [12]: 68
IC50 [13]: 1.13 µg/mL
IC80 [13]: 8.31 µg/mL
MPI [13]: 100
IC50 [14]: 3.04 µg/mL
IC80 [14]: 8.13 µg/mL
MPI [14]: 100
IC50 [15]: > 50 µg/mL
IC80 [15]: > 50 µg/mL
MPI [15]: 43
IC50 [16]: 20 µg/mL
IC80 [16]: > 50 µg/mL
MPI [16]: 71
IC50 [17]: 13.1 µg/mL
IC80 [17]: 32.2 µg/mL
MPI [17]: 93

PG9 (antibody)
IC50, titer in TZM.bl cells [1]: > 50 µg/mL
IC80, titer in TZM.bl cells [1]: > 50 µg/mL
IC50, titer in TZM.bl cells [2]: 0.049 µg/mL
IC80, titer in TZM.bl cells [2]: 0.243 µg/mL
IC50, titer in TZM.bl cells [3]: 0.322 µg/mL
IC80, titer in TZM.bl cells [3]: 1.49 µg/mL

PG16 (antibody)
IC50, titer in TZM.bl cells [1]: > 50 µg/mL
IC80, titer in TZM.bl cells [1]: > 50 µg/mL
IC50, titer in TZM.bl cells [2]: 0.029 µg/mL
IC80, titer in TZM.bl cells [2]: 0.144 µg/mL
IC50, titer in TZM.bl cells [3]: 3.13 µg/mL
IC80, titer in TZM.bl cells [3]: > 50 µg/mL

N49P11 (antibody)
IC50 [4]: 0.599 µg/mL
IC80 [4]: 3.56 µg/mL
MPI [4]: 100
IC50 [5]: 1.72 µg/mL
IC80 [5]: 8.15 µg/mL
MPI [5]: 100
IC50 [6]: 0.202 µg/mL
IC80 [6]: 0.956 µg/mL
MPI [6]: 100
IC50 [7]: 4.77 µg/mL
IC80 [7]: 14.2 µg/mL
MPI [7]: 100
IC50 [8]: 0.635 µg/mL
IC80 [8]: 2.29 µg/mL
MPI [8]: 100
IC50 [9]: 8.81 µg/mL
IC80 [9]: 21.2 µg/mL
MPI [9]: 100
IC50 [10]: 0.248 µg/mL
IC80 [10]: 1.17 µg/mL
MPI [10]: 100
IC50 [11]: 0.303 µg/mL
IC80 [11]: 1.59 µg/mL
MPI [11]: 100
IC50 [12]: 0.363 µg/mL
IC80 [12]: 2.15 µg/mL
MPI [12]: 100
IC50 [13]: 0.221 µg/mL
IC80 [13]: 1.64 µg/mL
MPI [13]: 100
IC50 [14]: 0.027 µg/mL
IC80 [14]: 0.103 µg/mL
MPI [14]: 100
IC50 [15]: 0.55 µg/mL
IC80 [15]: 2.65 µg/mL
MPI [15]: 100
IC50 [16]: 5.52 µg/mL
IC80 [16]: 20 µg/mL
MPI [16]: 100
IC50 [17]: 0.889 µg/mL
IC80 [17]: 4.45 µg/mL
MPI [17]: 100
